Test results from a protein production outcome set (Wang et al. 2014).

Assay: label from the status in PepcDB records
In the case of “MAGPTLLKESGPREVFCGLTSIVWLHRRMPDAFFLVVGSRTCAHLIQSAAGVMIFAEPRFGTAILSERDLAGLADAHEELDRVARELLQRRPEIRTLFLVGSCPSEVIKLDLARAAERLNDELQGRVRVVNYSGSGIETTFTQGEDGALAALVPLLPSSAERQLLLVGTLADAVEDRLIHLFGRLGIDRVRSLPPRQSTALPPVGPGTTVLLTQPFLTDTARLLRNRGATVLTAPFPLGAEGSRRWMEAAAQAFEVAPSHVATVLDPLMERARIALEPHREVLAGKRIFLLPESQLELPLARFLQRECGMELVEVGTPYLNREQMAEELALLPEGTPVMEGQHVELQLDRVRDSAPDLVVCGMGLANPLEAEGIATKWSIELVFSPIHGIDQAGDLAELFSRPLRRRQLIHPGLHPTQPDQPVHA”, the protein production is reported as “failed”.
For “MAGRVHPRQLAFSLPHAESLSRDNFLEGPANAAGLALIDGWPEWPNRIMWLAGPEGSGKSHLAAIWAEEAGARSTTANALSAAGVPGALATGALVVEDLKAKDFDERALFHLMNLAREDGAYVLFTGRDVPAALDIELNDLRSRLRAVPVVMLLPPDDQLFRGLIVKFCADRQLTVDESVVSYLATRLERSSAAARQAVELLDSEALRLGRPVTRALAAELLRDALEHHHHHH”, the protein production was “not failed”.
With “MAGSGVPSHRSMVIKVSVFAVVMLLVAAGLVVVFGDFRFGPTTVYHATFTDASRLKAGQKVRIAGVPVGSVKAVKLNPDHSIDVAFAIDRSYTLYSSTRAVIRYENLVGDRFLEITSGPGELRKLPPGGTINVAHTQPALDLDALLGGLRPVLKGFDADKINTITSAVIELLQGQGGPLANVLADTGAFSAALGARDQLIGEVITNLNAVLATVDAKSAQFSASVDQLQQLVSGLAKNRDPIAGAISPLASTTTDLTELLRNSRRPLQGILENARPLATELDNRKAEVNNDIEQLGEDYLRLSALGSYGAFFNIYFCSVTIKINGPAGSDILLPIGGQPDPSKGRCAFAK” the protein production was “failed”.
In the case of “MAGTNSERELLTEGPAIILAFPQLGENIGMVARAMANFGLSELRLVSPRDGWPSEKARSAASRADHVIDGAKLYETLEEALADLNFVYATTARDRDGFKPVRSPIVAARELRHRFKEGEKVGIIFGRERTGLTNAEVALADEIVTFPVNPAFASLNLAQAVLLMSYEWLKTGMTSEDETSFQASQQRPATKEQLHGLCEHLEEA”, the protein production is reported as “failed”.
For “MAGVITGFAIILSVIGVGFLLAKLGVINDDKQRLVLNRIAFYAATPALLFNVVARSDPSALISPVIVVTFVATIVTAAVYCVISAIFFKKDIATTATGAAASAYVNSNNIGLPVSIYVLGTGAYVAPILVMQMVIFAPMILAALTSGDVKGSRGQKIWAAVKGSLLSPIVLASIAGLIVCLLEIQLPAAVMEPTIILGGASIPLILMSFGASLPSTNVLASKADRPSVLTATAIKIVGMPAITWLIAKAFGLEGDYLYAAVILAALPAAQNVYNYAATYRKGEIVARDTVFLTTFLALLGMLGIAALFGR”, the protein production was “not failed”.
With “MAHFSARLKLLSSNDGLSFGVDSRDQFRQSLYMAGGGSPLVPIRMSRLKFCARIFSSYSFPYKRKKIRDLDNTEKNLDIDEDNDEWDFDGDDDGLETDDHLSCFRGLVLDISYRPVNVVCWKRAICLEYMDKADVLEYYDQTVSSPTGSFYIPAVLRVPHLLQVVKRRRVKNSLSRKNILLRDDYTCQYCSSRENLTIDHVMPVSRGGEWTWQNLVAACSRCNSRKGQKTADEAHMKLLKVPKEPKDYDIVAIPLTNAAIRMLRSNKGMPEEWRQYLAKPLSET” the protein production was “failed”.
In the case of “MAHNYLLEIGLEEIPAHVVTPSIKQLVQKVTAFLKENRLTYDSIDHFSTPRRLAIRINGLGDQQPDIEEDAKGPARKIAQDADGNWTKAAIGFTRGQGLTVDDITFKTIKGTDYVYVHKLIKGKMTKEILTGLKEVVESINFPTMMKWANFDFKYVRPIRWLVSILDEEVLPFSILDVTAGRRTEGHRFLGEAVELANAEEYEAKLHDQFVIVDADERKQLISNQIKAIAESNRWNVTPNPGLLEEVNNLVEWPTAFNGGFDEKYLAIPEEVLITSMRDHQRFFFVRDQAGKLLPNFISVRNGNEEFIENVVRGNEKVLTARLEDAAFFYEEDQKHDINYYVDRLKKVSFHDKIGSMYEKLQRVNSIAKVIGNTLNLNQTELDDIDRATMIYKFDLVTGMVGEFSELQGVMGEKYAQLNGENQAVAQAIREHYMPNSAEGDLPESVTGAVVALADKFDNIFSFFSAGMIPSGSNDPYALRRHAYGIVRILNSRDWQLDLNQFKSQVKTELAENGTAFGVDVDQNFDQVLNFFNDRIKQLLDHQKISHDIVETVLTGNNHDVTEIIEAAQVLADAKASSTFKDDIEALTRVQRIATKNEESGELNVDPQLFNNASEGELFDQIIKIEAANNLTMSQLFAKLCELTPAISKYFDATMVMDKDENIKRNRLNMMSRLANLILKIGDLTNVLVK”, the protein production is reported as “failed”.
With “MAIAHTYRRYLDYLRQDRGLAKNSLLVYGPFIRDFLDSHSAGDGSLLPDAFDAVTIRNHLLARSKGRSAEYTRLMAVALRSFCHFLFLRGDTARDLAGSVLEHHHHHH” the protein production was “failed”.
For “MAIARHRSFSRAAIELGVSASALSHALKGLETRLGVRLLNRTTKSVTPTAAGEELVQSVLQPFDTIEGALESLNRYRNTPTGRIRINAAVEAANLLLAPVMPAFMDRYPDIEIDIVASNRMVDVTDAGFDAGIRYGGTVPEDMVARRLSADIRWVIAASPDYLERYGTPEHPDDLLHHRCISNRLGDDRVYRWELARDGETYQMTVPGSVTVNHAETGLVAVLGGAGLMYFPEPLVAPYVKDGRLRLVLTEWSPLEEGFHIYYSSRRQLPTGLRLLIEFIQEARPLGL”, the protein production was “failed”.
In the case of “MAICESGALPSHVGALSYSGGAASSFFGRRNADGLNDKWLALRDAFRAAGGDLLAIEDARSAALDFVIHVNAHRLRHDVPAFVILAESEFIHPPNVDWRMLQQYKGIFTWMPDLVRRGIGTEICLAHPLGAGVVDGYQERPQLLVMIASNKALPVWRPAVDLYRERVRAIRWFEKHAPQAFALYGHDWDKSPRLPTPLGGIVHGVEFVLPWRLQWFPSWKGVIPSKREVLRHARFSLCYENVRGLRGYITEKIFDAFCAGNVPVYWGAEDITDYIPADCFIDRRAFGDYADLYRYLTSMPETRYIQYQQAICDFLVSPAAKRFSSEIFATTIVGKVLDTLGRRDELEHHHHHH”, the protein production is reported as “failed”.
For “MAIDPNSIGAVTEPMLFEWTDRDTLLYAIGVGAGTGDLAFTTENSHGIDQQVLPTYAVICCPAFGAAAKVGTFNPAALLHGSQGIRLHAPLPAAGKLSVVTEVADIQDKGEGKNAIVVLRGRGCDPESGSLVAETLTTLVLRGQGGFGGARGERPAAPEFPDRHPDARIDMPTREDQALIYRLSGDRNPLHSDPWFATQLAGFPKPILHGLCTYGVAGRALVAELGGGVAANITSIAARFTKPVFPGETLSTVIWRTEPGRAVFRTEVAGSDGAEARVVLDDGAVEYVAG”, the protein production was “not failed”.
For “MAIDSKPHDDLQLFKTNLHPCGYWPDRWASDLVMDPNDPRLGAIYPQTLAWGFRRSGNLLYRPHCEHCNACVPVRVNVNAFVPNRSQRRCLARNATLVTRIVPAERNAEQLSLYRRYLHQRHPDGGMDGHGAIEFDQFLIGPWGYGRFMEIREPATNGTPGQLLAVAVTDLTHQALSAVYTFYEPNAAARGLGTLAILHQIHWAQREQRPYLYLGYWIKDHFKMDYKRRFQKLEIYDGYRWRPFSTTYPTTHTLLEHHHHHH”, the protein production was “not failed”.
For “MAIDTNSSTPLVSVITPTYNRPNYLQAALTSAVRQTYSHIEIIVCDNCSPQNPQAIVDSFDDSRIRFFRNSSNMGMFANTIKAFKMARGKYVACLLDDDLWEEDFLEKLVPPLEANPNLALAFCDHYIMDANGNIDDALTEEYSRSYKRVDLPEGIYQPFYRMGLVDRSVSTATAAVMRRDAIAWDAIPAEVGGSWDIYLNYLCCRSGLGAYFYPEKLTRYRVHEQTETMLSGKRDAQAKIRKAQADMFCYEQFMADERLQELKPYFQQQWAHVSTTLGIGFMRSKQMKLARSYFWRSLKQSLKLRTMAGLMLSFTPPTIASRF”, the protein production was “failed”.
With “MAIETAILEKIKQYQTIIIHRHQRPDPDCIGSQLALRAILRASFPEKTVVAVGKHYPGFDWMGQADQEVSDDTYHQALVIVVDTANQPRVDDERWQTGAAVIKIDHHPNDDAFGDLQWVLPQASSTSEIIYDWFEANHADLTMPDDAARLLYAGIVGDTGRFMYPATSANTFAVAGKLLAYDFSMTAVNQAEDEISPEMARLSAYAYQNLEILPSGAAYLKLTDEIVESFGLAASDSTSAIVPLPGKITSVVAWAIFVESKDKTFRVRLRSKGPSINELAKRHGGGGHALASGAAAKDQAEIDQVIHELDQLVADTKGENELEHHHHHH” the protein production was “not failed”.
With “MAIGERIHFFRLLRGMTQKYLGTAVGFPERSADVRLAQYETGSRKPKADLTAALAQVLDVSPQALDVPDIDSQIGLMHTLFTLEDVYGLTISEADGEVCLKVNKDKGKKAYELLQMLYVWKEQADKLSAGEISKDDYDRWRYYYPKYDTTQLWAKVPSQQLSDTLVEAFQDKLKKDELEHHHHHH” the protein production was “failed”.
With “MAIGSLSSLGLGSKVLNYDVIDKLKDADEKALIAPLDKKMEQNVEKQKALVEIKTLLSALKGPVKTLSDYSTYISRKSNVTGDALSASVGVGVPIQDIKVDVQNLAQGDI” the protein production was “failed”.
In the case of “MAIKAGKVLRTATAAARKFQQKQFSASSSAFPEPPPVSPSSGVGAFLGIPKIIRSESDLLVSKYIRIAQGRLTKKGDYTEEKLKKMLSGEDRVGIGETMKLLEGRNTGLVSSKKPNSGRSKK”, the protein production is reported as “failed”.
With “MAIKGPRKHLKRLAAPANWQLPRKVKTFTVRPSPGPHSMDKSLPLLLVVRDVLKYADNAREAKKIIQTGKILIDGLKRKEYKHPAGLMDVLSIPEMDETYLVLFDESGRISLKKTDKTDVKLCKIVNKTVVKGGNIQLNLHDGRNQIVKVSDAAKAEEDVYKTGDSVLISIPEQSIAGHVAFGEGKLAYITGGKHVGEFAKIVEVENRALYSDIVTLENKDGEKFKTVKPYVFIVGQDEPVISMLEHHHHHH” the protein production was “not failed”.
For “MAIKNAFYAQSGGVTAVINASACGVIQTARKHPDQIGKVYAGRNGIIGALKEELIDTSLESDDAIQALIHTPGGAFGSCRYKLKNISENQREYERLIEVFRAHDIGYFFYNGGGDSQDTAYKVSQLADRMGYPITCIGVPKTVDNDLPFTDCCPGFGSVAKYIATSTLEASLDIKSMCETSTKVFILEVMGRHAGWIAAAGGLAGQSEGEPPHVILFPEIPFNREKFLERVDQCVRDYGYCVVVASEGAQYEDGRFVADAGAKDAFGHTQLGGVAPALANMVKQALGHKYHWAVADYLQRAARHIASATDVEQAYAVGKAAVEMALAGKQALMPTIVRDQAKPYRWSIGEANLSEVANQEKKMPIHYITDNGFGITQDCRDYLQPLIAGESFPPFDDGLPRVAKLKNQLVEKKLRTEFELLEHHHHHH”, the protein production was “failed”.
For “MAINPNPRSVVAVRATVPEDAFTAGALGTLREGSGVVIRNDGLVLTIGYLITEAEEVWLTAYDGRVIPAHALAYDQESGFGLVQALAPTGLPAVALGDAGKARIGDAVVLADGIGRAVEAKIVTKQEFAGYWEYLLDEAIFIAPAHPSWGGAPLFGADGALLGIGSLRLQMSRAGEVADINMVVPIDLLPPILDDLLTRGQVAKPPRPWLGALSAESDGKVVVMSVTEGGPAAKAGLRQGDVISEVRDGAVDGLADFYRKLWDSGSAGAEIPMRVVRDGRETWLRVKSADRGSFLKKPQLQ”, the protein production was “failed”.
In the case of “MAISVFDLFKIGIGPSSSHTVGPMRAAALFTAALRQRQALSAVRRLEVRLYGSLSATGVGHGTDRAVIMGLMGEWPDRIDPTQIAPRMAALLDSGLLQLDGRVAVPFDWVRDMRLLDENLPYHPNAMTLVAYGEQGELHQETYYSVGGGFVVDAAQAASGQLDQDHTVLPYDFSSAEELLLLCKRHNLRVSELMLANERIWRSETDIREGLRRIWQAMRDCVDNGLRNEGILPGGLNVQRRAARLHRNLQEIGKPNVIGSTLSAMEWVNLFALAVNEENAAGGRMVTAPTNGAAGIIPAVLHYYMKFNPDAQDRDVVDYLLAAAAVGILCKKNASISGAEVGCQGEVGSACAMAAAGLAEVLGATPAQVENAAEIGLEHNLGLTCDPVGGLVQVPCIERNAIAAVKAINAAQMALRGDGQHFISLDKVIRTMRDTGADMHDKYKETSRGGLAVNAIE”, the protein production is reported as “failed”.
